One molecule from article PMC9729208, “Structural basis for the non-self RNA-activated protease activity of the type III-E CRISPR nuclease-protease Craspase” can be followed below.

One series deals with gRAMP (Candidatus Scalindua brodae, UniProt A0A0B0EGF3 1-1717). Nature of the series: cryo-EM; Complex assembly at 1:1.2 (complex:target RNA), 5 mM EDTA, on ice 30 min; SEC in 20 mM Tris-HCl pH 8.0, 150 mM NaCl, 1 mM DTT. The settings on record: protein: recombinant; tags: N-terminal His6; single strand; 35 nt modelled in 7Y80 and 7Y84.
The target of another series is gRAMP;TPR-CHAT (Candidatus Scalindua brodae;Candidatus …, UniProt A0A0B0EGF3;A0A0B0EKL4 1-1717;1-716, |). Kind of series: cryo-EM (2.6 A); Complex assembly at 1:1.2 (complex:target RNA), 5 mM EDTA, on ice 30 min; SEC in 20 mM Tris-HCl pH 8.0, 150 mM NaCl, 1 mM DTT. Particulars: protein: recombinant;recombinant; tags: N-terminal His6;C-terminal Strep II; copies: 1;1; single strand; 35 nt modelled in 7Y80 and 7Y84.

B1: crRNA (ssRNA)
RNA: GACUUAAUGUCACGGUACCCAAUUUUCUGCCCCGGACUCCACGGCUGUUACUAGAG
With B1, the binding result with gRAMP and with gRAMP;TPR-CHAT was “binds” each time.
